From patent US20260034233A1 (SUNMED THERAPEUTIC, published 2026)

Target: T1, human Galectin-3 (human, UniProt P17931 2-250, limits assumed)
T1 construct: also called Human GAL-3; hGal-3
Assay: Carterra LSA SPR epitope binning, antibody on chip, hGal-3 injected
Procedure: The purpose of this study is to determine the epitope binning of antibodies against human Gal-3. Binning assay was conducted to characterize epitopes of the anti-Gal-3 antibodies using a Carterra LSA instrument. All the antibodies were constructed in hIgG4 backbone. Antibodies as ligands were covalently linked to a HC200M chip. The antigen hGal-3 as the analyte was injected to flow cells to bind to the captured ligands. Competitive binning was programmed to determine if two mAbs can bind simultaneously to the same antigen.
Epitope binning assay procedure. An array of antibodies as ligand were coupled to the chip surface HC200M using the Multichannel PH with the running buffer (25 mM MES buffer). The NHS/EDC activation time and coupling time was set at 5 min and 15 min respectively. The SFC then docked onto the chip, and in each cycle, antigen human Galectin-3 was injected across the entire Ab array, with association time of 5 min, followed by a single antibody as analyte with association time of 5 min. After 1 min dissociation, regeneration buffer (pH 2.0, 10 mM Glycine) was applied for 20 s for three times. The data were analyzed by Caterra Epitope Data Analysis Software.

T1 sequence (P17931 2-250 limits assumed): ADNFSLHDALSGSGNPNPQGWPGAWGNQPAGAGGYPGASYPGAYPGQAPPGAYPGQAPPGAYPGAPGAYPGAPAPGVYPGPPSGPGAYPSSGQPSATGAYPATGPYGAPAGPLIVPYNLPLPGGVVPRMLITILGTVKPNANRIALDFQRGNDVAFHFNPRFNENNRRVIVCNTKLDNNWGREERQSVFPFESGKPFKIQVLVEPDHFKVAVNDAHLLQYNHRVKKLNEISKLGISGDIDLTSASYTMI

Row | Binder | binding result
1 | 1104SBC1068-378 (antibody, IgG4, V domains shown) VH: QIQLVQSGPELKKPGETVKISCKASGYTFTNYGMNWVKQAPGKGLKWMGWINTYTGEPTYADDFKGRFAFSLETSASTAYLQINNLKNEDTATYFCARWDDYDGFAYWGQGTLVTVSA VL: DIVLTQSPATLSVTPGDSVSLSCRASQSISNNLHWYQQKSHESPRLLIKYASQSISGIPSRFSGSGSGTDFTLSINSVETEDFGMYFCQQSNSWPLTFGAGTKLELK | binds
2 | 1220SBC1068-063 (antibody, IgG4, V domains shown) VH: EVNLLESGGGLVQPGGSLKLSCEASGFDFSRFWMSWVRQTPGEGLEWIGEISPNSSTIHQTPSLKDRFIISRDNAKNTLFLQMTKVTSDDSALYYCARPYYGYYWGHGTLVTVSA VL: DIVMTQSPSSLTVTAGEKVTMSCKSSQSLLSSINQKNYLTWYQQKPGQPPKLLIYWATSRESGVPDRFTGSGSGTDFTLTISSLQAEDLAVYYCHNDYSYPFTFGSGTRLEIK | binds
3 | 1220SBC1068-197 (antibody, IgG4, V domains shown) VH: EVNLLESGGGLVQPGGSLKLSCEASGFDFSRFWMSWVRQTPGEGLEWIGEISPNSSTIHQTPSLKDKFFISRDNAKSTLFLQMTNVTSEDSALYYCARPYYGYYWGHGTLVTVSA VL: DIVMTQSPSSLTVTAGEKVTMSCKSSQSLLNSINQKNYLTWYQQKPGQPPKLLIYWATFRESGVPDRFTGSGSGTDFTLTISGLQAEDLAVYYCHNDYSYPFTFGSGTRLEIK | binds
4 | 1220SBC1068-186 (antibody, IgG4, V domains shown) VH: EVQLQQSGPELVKPGASMKMSCKASGYSFTGYTMNWVKQSHGKNLEWIGLISPYSGGTNYNQKFKGKATLTVDKSSSTAYMEVFSLTSEDSGVYYCARSGFITTGVATNFDVWGAGTTVTVSS VL: DIVMTQSHKFMSTSVGDRVSITCKASQDVSTAVAWYQQRPGQSPKLLIYSASNRYTGVPDRFTGSGSGTDFTFTISSMQAEDLAIYYCQQHYSTPRTFGGGTKLEIK | binds
5 | 1220SBC1068-035 (antibody, IgG4, V domains shown) VH: EVQLQQSGPELVKPGASMKISCKASGYAFTGYTMNWVKQSHGKNLEWIGLISPYSGGTNYNQRFKGKATFTVDKSSSTAYMELLSLTSEDSGVYYCARSGFITTGVPTNFDVWGAGTTVTVSS VL: DIVMTQSHKFMSTSVGDGVNITCKASQDVSTAVAWYQQKPGQSPRLLIYSASYRYTGVPDRFTGSGSGTDFTFTISSMQAEDLAVYYCQQHYTTPRTFGGGTKLEIK | binds
6 | 1104SBC1068-365 (antibody, IgG4, V domains shown) VH: QIQLVQSGPELKKPGETVKISCKASGYTFTNYGMNWVKQAPGKGLKWMGWINTNTGEPTYSEEFKGRFAFSLETSASTAYLQINNLKNEDTATYFCGRSSYYAMDYWGQGTSVTVSS VL: not shown | binds
7 | 1220SBC1068-210 (antibody, IgG4, V domains shown) VH: EVKLLESGGGLVQPGGSLKLSCAASGFDFSRYWMSWVRQAPGKGLEWIGEINPDSSTIDLTPSLKDNFIISRDNAKNALYLQMSKVRSEDTALYYCTRPYYGYYWGQGTLVTVSA VL: DIVMTQSPSSLTVTAGEKVTMNCRSSQSLLNSTNQKNYLTWYQQRPGQPPKLLIYWASTRESGVPDRFTGSGSGTDFTLTISTVQAEDLAVYYCQNDYTSPFTFGSGTKLEIK | binds
8 | 1220SBC1068-164 (antibody, IgG4, V domains shown) VH: EVKLLESGGGLVQPGGSLKLSCAASGFDFSRYWMSWVRQAPGKGLEWIGEISPDSSTINYTASLKDKFNISRDNAKNTLYLQMSKVRSEDTALYYCARPYYGYYWGQGTLVTVSE VL: DIVMTQSPSSLTVTAGEKVTMSCKSSQSLFNSGNQKNYLTWYQQKPGQPPKLLIYWAYTRESGVPDRFTGSGSGTDFTLTIHGVQAEDLAVYYCHNDYTSPFTFGSGTKLEMK | binds
9 | 1220SBC1068-129 (antibody, IgG4, V domains shown) VH: EVKLLESGGDLVQPGGSLKLSCAASGFDFSRFWMSWVRQAPGKGLEWIGEINPDSSTITYTPSLKDKFIISRDNAKSSLYLQMSKVTSEDTALYYCARPYYGYYWGQGTLVTVSA VL: DIVMTQSPSSLTVTAGKEVTMSCKSSQSLLNSTNQKNYLTWYQQKPGQSPKLLIYWASTRDSGVPDRFTGSGSGTDFTLTISSVQAEDLAIYYCHNDYISPFTFGSGTKLEIK | binds
10 | 1220SBC1068-099 (antibody, IgG4, V domains shown) VH: EVKLLESGGGLVQPGGSLKLSCAASGFDFSRYWMTWVRQAPGKGLEWIGEINPHSSTITYTPSLKDKFIISRDNAKNTLYLQMSKVSSEDTALYYCARPYYGYYWGQGTLVTVSA VL: DIVMTQSPSSLTVTAGEKVTMSCKSSQSLLNSGNQKIYLTWYQQKPGQPPKLLIYWASIRESGVPDRFTGSGSGTDFTLTISSVQAEDLAVYYCQNDYSSPFTFGSGTKLEIK | binds
11 | 1220SBC1068-274 (antibody, IgG4, V domains shown) VH: EVKLLESGGGLVQPGGSLKLSCAASGFDFSRYWMSWVRQAPGKGLEWIGEISPDSNTIDLTPSLKDNFIISRDNAKNALYLQMSKLRSEDTALYYCTRPYYGYYWGQGTLVTVSA VL: DIVMTQSPSSLTVTAGEKVTMNCRSSQSLLNSTNQKNYLTWYQQKPGQPPKLLIYWASTRESGVPDRFTGSGSGSDFTLTISTVQAEDLAVYYCQNDYTSPFTFGSGTKLEIK | binds
12 | 1220SBC1068-098 (antibody, IgG4, V domains shown) VH: EVKLLESGGGLVQPGGSLKLSCAASGFDFSRYWMSWVRQAPGKGLEWIGEISPDSSTIDLTPSLKDNFIISRDNAKNALYLQMSKVKSEDTALYYCTRPYHGYYWGQGTLVTVSA VL: DIVMTQSPSSLTVTAGEKVTMNCRSSQSLLNSTNQKNYLTWYQQKPGQPPKLLIYWASTKESGVPDRFTGSGSGTDFTLTINTVQAEDLAVYYCQNDYTSPFTFGSGTKLEIK | binds
13 | 1220SBC1068-097 (antibody, IgG4, V domains shown) VH: EVKLLESGGGLVQPGGSLKLSCAASGFDFSRYWMSWVRQAPGKGLEWIGEINPDSSTIDLTPSLKDNFIISRDNAKNALYLQMSKVKSEDTALYYCTRPYHGYYWGQGTLVTVSA VL: DIVMTQSPSSLTVTAGEKVTMNCRSSQSLLNSTNQKNYLTWYQQKPGQPPKLLIYWASTRESGVPDRFTGSGSGTDFTLTINTVQAEDLAIYYCQNDYTSPFTFGSGTKLEIK | binds
14 | 1220SBC1068-022 (antibody, IgG4, V domains shown) VH: EVKLVESGGGLVQPGGSRKLSCAASGFTFSDYGMAWFRQAPGKGPEWVAFISNLAYSVYYADTVTGRFTISRENAKNTLFLEMSSLRSEDTAIYYCTRDRGLRESMDYWGQGTSVTVSS VL: DIVMTQAAPSVPVTPGESVSISCRSSKSLLHNNGNTYLCWFLQRPGQSPQLLIYRMSDLASGVPDRFSGSGSGTAFTLRISRVEAEDVGVYYCMQHLEYPYTFGGGTKLEIK | binds

The next lines start with the values.

Row | binding result | Binder
15 | binds | 1220SBC1068-041 (antibody, IgG4, V domains shown) VH: EVKLLESGGGLVQPGGSLKLSCAASGFDFSRFWMSWVRQAPGKGLEWIGEISPDSNTIDLTPSLKDNFIISRDNAKNALFLQMSKVRSEDTALYYCTRPYYGYYWGQGTLVTVSA VL: DIVMTQSPSSLTVTAGEKVTMNCRSSQSLFNSTNQKNYLTWYQQKPGQPPKLLIYWASSRESGVPDRFTGSGSGTDFTLTISTVQTEDLAVYYCQNDYTSPFTFGSGTRLEIK
16 | binds | 1220SBC1068-056 (antibody, IgG4, V domains shown) VH: EVKLVESGGGLVQPGGSRKLSCAASGFTFSDYGMAWFRQAPGKGPEWVAFISNLAYSVYYADTVTGRFTISRENAKNTLYLEMSSLRSEDTAIYYCTRDRGLRESMDYWGQGTSVTVSS VL: DIVMTQAAPSVPVTPGESVSISCGSSKSLLHKNGNTYLCWFLQRPGQSPQLLIYRMSNLASGVPDRFSGSGSGTAFTLRISSVEAEDVGIYYCMQHLEYPYTFGGGTKLEIK
17 | binds | 1220SBC1068-058 (antibody, IgG4, V domains shown) VH: EVKLVESGGGLVQPGGSRKLSCAASGFTFSDYGMAWFRQAPGKGPEWVAFISNLAYSVYYADTVTGRFTISRENAKNTLYLEMNSLRSEDTAIYYCTRDRGLRETMDYWGQGTSVTVSS VL: DIVMTQAAPSVPVTPGESVSISCRSSKSLLHNNGNTYLCWFLQRPGQSPQLLIYRMSNLASGVPDRFSGSGSGTAFTLRISRVEAEDVGVYYCMQHLEYPYTFGGGTKLEIK
18 | binds | 1104SBC1068-033 (antibody, IgG4, V domains shown) VH: DVQLQESGPGLVKPSQSLSLTCTVTGYSITSDYAWNWIRQFPGNKLEWMGYISYSGSTSYNPSLKSRISITRDASKNQFFLQLNSVTTEDTATYYCAREGGRGGTEGYYFDYWGQGTTLTVSS VL: NIVLTQSPASLAVSLGQRATISCRASESVDSYGNSFMHWYQQKPGQPPKLLIYLASNLESGVPARFSGSGSRTDFTLTIDPVEADDAATYYCQQNNEDPLTFGAGTKLELK
19 | binds | 1104SBC1068-374 (antibody, IgG4, V domains shown) VH: QIQLVQSGPELKKPGETVKISCKASGYTFTNYGMNWVKQAPGKGLKWMGWINTYTGEPTYADDFKGRFAFSLETSASTAYLQINNLKNEDMATYFCARYAMDYWGQGTSVTVSS VL: QAVVTQESALTTSPGGTVILTCRSSTGAVTTSNYANWVQEKPDHLFTGLIGGTSNRAPGVPVRFSGSLIGDKAALTITGAQTEDDAMYFCALWYSTHYVFGGGTKVTVL
20 | binds | 1104SBC1068-335 (antibody, IgG4, V domains shown) VH: QIQLVQSGPELKKPGETVKISCKASGYIFTNYGMNWVKQAPGKGLKWMGWINTYSGEPTYVDDFKGRFVFSLETSASTAYLQINNLKNEDMATYFCARGTVVGFDYWGQGTTLTVSS VL: not shown
